The record followed here is patent US20220089647A1 (FUJIFILM, published 2022).

In this assay the target is T1, human integrin αvβ5 (human, UniProt P06756 31-992; P18084 24-719, limits assumed).
T1 construct: Heterodimer flowed as analyte at 30, 100, 300 and 1,000 nM in HEPES buffer with 5 mM MgCl2
In words: SPR, Biacore 3000, peptide immobilised; A = KD 50 nM or less. The procedure:
However, only for the cyclic peptides 125, 126, and 127, in which the number of lysine residues having an amino group as the immobilizing functional group was zero, the amount of the sample solution to be supplied to the sensor chip was set to 500 μL instead of 20 μL. Further, 70 μL of the mixed aqueous solution of 0.2 M EDC and 0.04 M NHS was added to another flow channel of the same sensor chip without immobilizing the sample, and then blocking treatment and washing treatment were carried out. Hereinafter, the obtained immobilization-treated sensor chip is referred to as an “immobilization-treated sensor chip A”.
After adding human integrin αvβ5 for 10 minutes at 25° C., which was diluted to 30 nM using a HEPES buffer solution to which magnesium chloride was added to 5 mM, in each flow channel of the immobilization-treated sensor chip A prepared in (1) above, the same HEPES buffer solution (containing 5 mM magnesium chloride) was allowed to flow as a running buffer for 30 minutes, and measurement was carried out with Biacore 3000. Then, a regeneration treatment of removing human integrin αvβ5 was carried out by allowing a 0.5 M EDTA aqueous solution to flow through each flow channel for 10 minutes. Further, the above-described measurement process consisting of adding integrin for 10 minutes, allowing a running buffer to flow for 30 minutes, carrying out measurement with Biacore 3000, and carrying out regeneration treatment with 0.5 M EDTA aqueous solution was carried out in the same manner for 100 nM human integrin αvβ5, 300 nM human integrin αvβ5, and 1,000 nM human integrin αvβ5. Dissociation constant between the cyclic peptide and human integrin αvβ5 was calculated from the difference between the value measured by Biacore 3000 in the flow channel immobilized with the cyclic peptide and the value measured by Biacore 3000 in the flow channel unimmobilized with the cyclic peptide, in a case where each concentration of human integrin αvβ5 was allowed to flow, and the integrin binding property was evaluated according to the following evaluation standards. It is preferable that the evaluation result satisfies the evaluation standard A, B, or C.
A general note: Surface plasmon resonance follows binding to a sensor surface in real time, without labels.

Starred links: 1 amine or outer side, 2 acyl side, 3 side chain; linkers in the order of their positions; H or OH if unused. Positions of bridges follow the written chain, without caps; N, C: chain ends. Non-standard residues stand in square brackets, D forms with d. Primed or numbered codes have the meaning given here. No end group written: not given here. Dab(acetyl)″ = 2-amino-4-(acetylamino)butanoic acid, acetyl CH3 carbon bonded to the S of Hcy (S-CH2-C(=O)-NH-), O=C(C[*:3])NCC[C@H](N[*:1])C(=O)[*:2]; Dab(acetyl) = 2-amino-4-acetylamino-butanoic acid residue (N-γ-acetyl-diaminobutyric acid), CC(=O)NCC[C@H](N[*:1])C(=O)[*:2]; Orn(acetyl)″ = N-delta-acetyl-ornithine, acetyl CH3 carbon bonded to the S of Hcy, O=C(C[*:3])NCCC[C@H](N[*:1])C(=O)[*:2]; Lys(acetyl) = N-epsilon-acetyl-lysine, acetyl CH3 carbon bonded to the S of Hcy, O=C(C[*:3])NCCCC[C@H](N[*:1])C(=O)[*:2]; Dab(acetyl)(3) = 2-amino-4-(acetylamino)butanoic acid (Dab with N-γ-acetyl), CC(=O)NCC[C@H](N[*:1])C(=O)[*:2]; Dap(acetyl) = 2-amino-3-acetylamino-propanoic acid residue, CC(=O)NC[C@H](N[*:1])C(=O)[*:2]; Orn(acetyl) = N-δ-acetyl-ornithine residue, CC(=O)NCCC[C@H](N[*:1])C(=O)[*:2]; COCH2 = acetyl group that carries the bridge; hCys = N[C@@H](CCS)C(=O)O; Dab = NCC[C@H](N)C(=O)O

T1 sequence (P06756 31-992 limits assumed, chain 1 of 2): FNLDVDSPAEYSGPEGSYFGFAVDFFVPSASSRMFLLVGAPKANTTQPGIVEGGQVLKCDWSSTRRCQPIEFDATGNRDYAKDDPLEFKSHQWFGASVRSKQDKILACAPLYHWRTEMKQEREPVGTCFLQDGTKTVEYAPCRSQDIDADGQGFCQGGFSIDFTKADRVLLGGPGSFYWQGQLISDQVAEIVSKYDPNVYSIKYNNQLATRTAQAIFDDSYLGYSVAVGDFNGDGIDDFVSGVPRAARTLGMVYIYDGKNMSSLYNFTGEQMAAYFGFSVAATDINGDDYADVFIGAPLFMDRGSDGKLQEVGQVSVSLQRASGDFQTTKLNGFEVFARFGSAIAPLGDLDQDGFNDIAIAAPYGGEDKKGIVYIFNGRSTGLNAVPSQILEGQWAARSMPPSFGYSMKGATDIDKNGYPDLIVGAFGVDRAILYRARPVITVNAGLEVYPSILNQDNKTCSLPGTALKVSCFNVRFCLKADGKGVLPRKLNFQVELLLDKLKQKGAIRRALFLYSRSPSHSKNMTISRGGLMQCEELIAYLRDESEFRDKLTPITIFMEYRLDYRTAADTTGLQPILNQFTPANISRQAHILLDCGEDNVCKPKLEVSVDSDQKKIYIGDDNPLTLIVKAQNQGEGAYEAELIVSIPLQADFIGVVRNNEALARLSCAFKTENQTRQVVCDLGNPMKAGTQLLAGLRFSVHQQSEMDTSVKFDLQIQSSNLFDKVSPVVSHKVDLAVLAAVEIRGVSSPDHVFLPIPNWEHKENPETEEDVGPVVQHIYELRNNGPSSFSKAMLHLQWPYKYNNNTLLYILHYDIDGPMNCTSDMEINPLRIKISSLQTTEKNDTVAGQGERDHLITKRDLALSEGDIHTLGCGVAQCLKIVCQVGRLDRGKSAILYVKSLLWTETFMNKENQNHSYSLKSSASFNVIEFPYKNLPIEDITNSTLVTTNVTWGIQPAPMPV
T1 sequence (P18084 24-719 limits assumed, chain 2 of 2): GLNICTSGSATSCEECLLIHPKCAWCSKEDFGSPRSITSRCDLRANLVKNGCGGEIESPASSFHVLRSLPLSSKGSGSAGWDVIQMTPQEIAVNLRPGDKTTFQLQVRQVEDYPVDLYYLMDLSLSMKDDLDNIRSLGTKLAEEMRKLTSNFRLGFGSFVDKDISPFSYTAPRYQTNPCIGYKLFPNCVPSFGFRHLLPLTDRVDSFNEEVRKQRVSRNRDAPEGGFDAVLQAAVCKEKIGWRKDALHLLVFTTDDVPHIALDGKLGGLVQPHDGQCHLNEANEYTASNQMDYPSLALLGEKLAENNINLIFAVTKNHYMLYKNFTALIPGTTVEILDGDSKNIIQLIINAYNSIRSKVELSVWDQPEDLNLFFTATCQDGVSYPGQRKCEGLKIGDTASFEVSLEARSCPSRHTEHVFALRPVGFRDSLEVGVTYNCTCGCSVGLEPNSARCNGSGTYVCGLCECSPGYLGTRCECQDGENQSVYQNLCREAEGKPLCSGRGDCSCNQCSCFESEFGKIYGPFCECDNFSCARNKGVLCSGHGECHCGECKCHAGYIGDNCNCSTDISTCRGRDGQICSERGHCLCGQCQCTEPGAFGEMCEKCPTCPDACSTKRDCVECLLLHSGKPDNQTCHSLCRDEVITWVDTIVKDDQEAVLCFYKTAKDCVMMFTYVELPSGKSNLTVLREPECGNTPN

Turning to KKKKKKA[hCys]VPRGDTFA[Dab(acetyl)″]A (thioether 8-17) [Cyclic peptide 112], the dissociation constant was at most 50 nM.
Still for that read-out and setting: the value for A[hCys]VPRGDTFA[Dab(acetyl)″]AKKK (thioether 2-11) [Cyclic peptide 109] was at most 50 nM; that for KKKG[hCys]IPRGDTFR[Dap(acetyl)]A (thioether 5-14) [Cyclic peptide 114] was at most 50 nM.
Turning to KKKG[hCys]IPRGDTF[Dab(acetyl)″]A (thioether 5-13) [Cyclic peptide 58], the “dissociation constant (KD)” value was at most 50 nM.
With KKKG[hCys]IPRGDTFR[Lys(acetyl)]A (thioether 5-14) [Cyclic peptide 116], the dissociation constant was at most 50 nM.
Same read-out and setting: the value for KKKG[Dap(acetyl)]IPRGDTFR[hCys]A (thioether 5-14) [Cyclic peptide 117] was at most 50 nM.
Turning to KKKA[hCys]IPRGDNYR[Dab](COCH2)D (thioether 5-14) [Cyclic peptide 30], the “dissociation constant (KD)” value was at most 50 nM.
On the same count and under the same terms, in the case of KKKE[hCys]EPRGDNYR[Dab](COCH2)D (thioether 5-14) [Cyclic peptide 39] it was at most 50 nM; in that of KKKA[hCys]LPRGDNYR[Dab](COCH2)D (thioether 5-14) [Cyclic peptide 31], at most 50 nM.
For the molecule KKKA[hCys]YPRGDNYR[Dab](COCH2)D (thioether 5-14) [Cyclic peptide 32], the “dissociation constant (KD)” value was at most 50 nM.
For the molecule KKKA[hCys]EPRGDNFR[Dab](COCH2)D (thioether 5-14) [Cyclic peptide 34], the “dissociation constant (KD)” value is at most 50 nM.
As for KKKG[Dab(acetyl)″]IPRGDTFR[hCys]A (thioether 5-14) [Cyclic peptide 118], the dissociation constant is at most 50 nM.
Consider KKK[hCys]IPRGDNFR[Dab(acetyl)(3)] (thioether 4-13) [Cyclic peptide 11], for which the “dissociation constant (KD)” value is at most 50 nM.
KKK[hCys]VPRGDSFA[Dab(acetyl)″] (thioether 4-13) [Cyclic peptide 102]: the dissociation constant is at most 50 nM.
Same read-out and setting: in the case of KKK[hCys]IPRGDSFA[Dab(acetyl)″] (thioether 4-13) [Cyclic peptide 101] it was at most 50 nM.
KKK[hCys]IPRGDTFR[Dab(acetyl)″] (thioether 4-13) [Cyclic peptide 61] gave a dissociation constant of at most 50 nM.
On the same count and under the same terms, in the case of KKK[hCys]IPRGDTFA[Dab(acetyl)″] (thioether 4-13) [Cyclic peptide 62] it was at most 50 nM.

B1: Cyclic peptide 13 (peptide)
peptide: KKKXIPRGDNFX
modifications: not fully specified; KKK-(Hcy)-IPRGDNF(Dab(acetyl)); thioether bond Hcy-Dab(acetyl)
As to B1, the “dissociation constant (KD)” value is at most 50 nM.
Turning to KKK[hCys]VPRGDVF[Dab(acetyl)″] (thioether 4-12) [Cyclic peptide 66], the dissociation constant was at most 50 nM.
On to KKK[hCys]VPRGDNF[Dab(acetyl)] (thioether 4-12) [Cyclic peptide 14], for which the “dissociation constant (KD)” value is at most 50 nM.
As to KKK[hCys]IPRGDTF[Dab(acetyl)″] (thioether 4-12) [Cyclic peptide 63], the dissociation constant is at most 50 nM.
In the case of KKK[hCys]VPRGDTF[Dab(acetyl)″] (thioether 4-12) [Cyclic peptide 64], the dissociation constant was at most 50 nM.

B2: Cyclic peptide 125 (peptide)
peptide: AXVPRGDTFAXA
modifications: not fully specified; A-(Hcy)-VPRGDTFA(Dab(acetyl))A; thioether bond Hcy-Dab(acetyl)
notes: no lysine
For B2, the dissociation constant is at most 50 nM.

B3: Cyclic peptide 132 (peptide)
peptide: KKKGXIPRGDTFRXA
modifications: not fully specified; KKKG(Dap(acetyl))IPRGDTFR-(Pen)-A; thioether bond Dap(acetyl)-Pen
The molecule B3 showed a dissociation constant of at most 50 nM.

B4: Cyclic peptide 134 (peptide)
peptide: KKKGXIPRGDTFRXA
modifications: not fully specified; KKKG(Orn(acetyl))IPRGDTFR-(Pen)-A; thioether bond Orn(acetyl)-Pen
In turn, B4 had a dissociation constant of at most 50 nM.

B5: Cyclic peptide 130 (peptide)
peptide: KKKGXIPRGDTFRXA
modifications: not fully specified; KKKG-(Pen)-IPRGDTFR(Orn(acetyl))A; thioether bond Pen-Orn(acetyl)
Consider B5, for which the dissociation constant was at most 50 nM.

B6: Cyclic peptide 128 (peptide)
peptide: KKKGXIPRGDTFRXA
modifications: not fully specified; KKKG-(Pen)-IPRGDTFR(Dap(acetyl))A; thioether bond Pen-Dap(acetyl)
In turn, B6 had a dissociation constant of at most 50 nM.
In the case of KKKG[Orn(acetyl)]IPRGDTFRCA (thioether 5-14) [Cyclic peptide 139], the dissociation constant was at most 50 nM.

B7: Cyclic peptide 119 (peptide)
peptide: KKKGXIPRGDTFRXA
modifications: not fully specified; KKKG(Orn(acetyl))IPRGDTFR-(Hcy)-A; thioether bond Orn(acetyl)-Hcy
The molecule B7 displayed a dissociation constant of at most 50 nM.
The molecule KKKG[hCys]AIPRGDTFRA[Dab(acetyl)″]A (thioether 5-16) [Cyclic peptide 67] showed a dissociation constant of at most 50 nM.
Take KKK[hCys]IPRGDNFR[Dab](COCH2)A (thioether 4-13) [Cyclic peptide 3]: the “dissociation constant (KD)” value is at most 50 nM.
Regarding KKK[hCys]IPRGDNFR[Dab(acetyl)″]D (thioether 4-13) [Cyclic peptide 5], the “dissociation constant (KD)” value was at most 50 nM.
As to KKK[hCys]IPRGDNFR[Dab](COCH2)G (thioether 4-13) [Cyclic peptide 4], the “dissociation constant (KD)” value was at most 50 nM.
The same measure, in the same setting: in the case of KKK[hCys]IPRGDTFR[Dab(acetyl)″]A (thioether 4-13) [Cyclic peptide 57] it was at most 50 nM; in that of KKK[hCys]VPRGDNFR[Dab](COCH2)A (thioether 4-13) [Cyclic peptide 21], at most 50 nM.
The same measure, in the same setting: in the case of KKK[hCys]EPRGDNFR[Dab](COCH2)A (thioether 4-13) [Cyclic peptide 23] it was at most 50 nM; in that of KKK[hCys]YPRGDNFR[Dab](COCH2)A (thioether 4-13) [Cyclic peptide 24], at most 50 nM.
Turning to KKK[hCys]IPRGDNFRAA[Dab](COCH2)A (thioether 4-15) [Cyclic peptide 19], the “dissociation constant (KD)” value is at most 50 nM.
Turning to KKKKA[hCys]VPRGDTFA[Dab(acetyl)(3)]A (thioether 6-15) [Cyclic peptide 110], the dissociation constant is at most 50 nM.
The same measure, in the same setting: in the case of KKKG[hCys]IPRGDTFR[Orn(acetyl)″]A (thioether 5-14) [Cyclic peptide 115] it was at most 50 nM.
Same read-out and setting: the value for [hCys]VPRGDTFA[Dab(acetyl)″]KKK (thioether 1-10) [Cyclic peptide 103] was at most 50 nM.
On the same count and under the same terms, in the case of KKKKKA[hCys]VPRGDTFA[Dab(acetyl)″]A (thioether 7-16) [Cyclic peptide 111] it was at most 50 nM.
As for KKKA[Dap(acetyl)]EPRGDNYR[hCys]D (thioether 5-14) [Cyclic peptide 48], the “dissociation constant (KD)” value was at most 50 nM.

B8: Cyclic peptide 126 (peptide)
peptide: AXIPRGDSFAXA
modifications: not fully specified; A-(Hcy)-IPRGDSFA(Dab(acetyl))A; thioether bond Hcy-Dab(acetyl)
notes: no lysine
In turn, B8 returned a dissociation constant of at most 50 nM.

B9: Cyclic peptide 127 (peptide)
peptide: AXIPRGDSFAXG
modifications: not fully specified; A-(Hcy)-IPRGDSFA(Dab(acetyl))G; thioether bond Hcy-Dab(acetyl)
notes: no lysine
Molecule B9 came in with a dissociation constant of at most 50 nM.
